Measurements published in US20140371150A1 (UNIVERSITE DE NANTES, published 2014).

T1: human RANK on cells (human CD14+ monocytes; HEK-RANK cells) (human, UniProt Q9Y6Q6 30-616)
T1 sequence (looked up): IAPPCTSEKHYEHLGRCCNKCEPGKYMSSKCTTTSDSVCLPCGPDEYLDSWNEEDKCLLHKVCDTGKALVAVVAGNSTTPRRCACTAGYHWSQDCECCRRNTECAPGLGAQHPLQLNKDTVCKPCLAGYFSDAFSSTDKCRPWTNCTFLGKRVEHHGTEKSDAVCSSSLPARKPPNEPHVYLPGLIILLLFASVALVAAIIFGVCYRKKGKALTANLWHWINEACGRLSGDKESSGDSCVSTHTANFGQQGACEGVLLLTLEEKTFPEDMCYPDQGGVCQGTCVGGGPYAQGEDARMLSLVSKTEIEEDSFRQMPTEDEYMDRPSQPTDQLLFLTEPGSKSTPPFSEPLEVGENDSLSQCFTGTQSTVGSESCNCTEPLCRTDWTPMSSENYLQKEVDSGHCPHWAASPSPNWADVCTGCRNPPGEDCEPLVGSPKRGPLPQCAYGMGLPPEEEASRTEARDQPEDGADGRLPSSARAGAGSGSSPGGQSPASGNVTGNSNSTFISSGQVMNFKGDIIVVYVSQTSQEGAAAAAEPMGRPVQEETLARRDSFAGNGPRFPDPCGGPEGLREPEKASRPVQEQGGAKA

T2: mouse RANK on cells (murine CD11b+ monocytes; RAW264.7 cells) (mouse, UniProt O35305 31-625)
T2 sequence (looked up): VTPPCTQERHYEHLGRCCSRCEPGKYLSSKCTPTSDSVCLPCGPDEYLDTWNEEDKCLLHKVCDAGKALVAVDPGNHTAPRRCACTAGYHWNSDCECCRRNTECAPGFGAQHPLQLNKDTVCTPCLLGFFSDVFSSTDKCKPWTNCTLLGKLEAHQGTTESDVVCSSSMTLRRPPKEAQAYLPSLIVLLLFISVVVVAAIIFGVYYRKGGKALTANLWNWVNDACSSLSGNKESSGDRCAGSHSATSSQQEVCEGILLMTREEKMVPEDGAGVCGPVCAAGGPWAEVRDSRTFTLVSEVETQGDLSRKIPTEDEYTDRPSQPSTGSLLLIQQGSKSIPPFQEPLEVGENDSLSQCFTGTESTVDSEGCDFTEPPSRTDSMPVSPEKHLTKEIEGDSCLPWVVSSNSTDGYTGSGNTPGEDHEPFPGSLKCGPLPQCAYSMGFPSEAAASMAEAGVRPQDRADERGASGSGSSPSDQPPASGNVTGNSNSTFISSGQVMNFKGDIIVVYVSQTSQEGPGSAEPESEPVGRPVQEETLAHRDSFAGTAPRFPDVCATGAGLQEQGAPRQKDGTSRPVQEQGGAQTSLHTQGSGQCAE

T3: RANK-Fc carrier-free (R&D Systems) (human, UniProt Q9Y6Q6 30-212)
T3 construct: Bought from R&D Systems; Immobilized on the sensor chip for SPR and used in solution for NMR; also called hRANK; RANK-Fc CF; not shown: Fc part of the bought fusion protein
T3 sequence (looked up): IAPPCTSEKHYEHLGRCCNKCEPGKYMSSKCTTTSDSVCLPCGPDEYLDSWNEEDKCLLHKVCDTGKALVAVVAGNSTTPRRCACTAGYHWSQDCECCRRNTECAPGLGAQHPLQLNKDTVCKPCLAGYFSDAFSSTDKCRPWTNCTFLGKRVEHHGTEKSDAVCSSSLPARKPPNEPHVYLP

B1: Pep8 (peptide)
peptide: NVLKLCSGE
notes: Pegylated forms (N-(PEG)5, N-(PEG)8) were tested only in gene expression assays and in vivo; also called polypeptide Pep8
B2: Pep1 (peptide)
peptide: ELASYIIITQLG
notes: Synthetic designed peptide; the SPR text mentions no pegylation; also called polypeptide Pep1

How the values were obtained:
[1] = target: T1, human RANK on cells (human CD14+ …); experiment: cell-based or functional assay
[2] = target: T2, mouse RANK on cells (murine CD11b+ …); experiment: cell-based or functional assay
[3] = target: T3, RANK-Fc carrier-free (R&D Systems); experiment: SPR (BIAcore 3000), RANK-Fc immobilized, single cycle kinetics, 1:1 Langmuir model
Method: Biosensor experiments were carried out on a BIAcore 3000 instrument (BIAcore) as published previously (Baud'Huin et al. 2009). Recombinant purified RANKL (2 μg/mL in 5 mM maleate, pH 5.75) or RANK-Fc carrier-free (5 μg/mL in sodium acetate buffer, pH 5.0) were covalently immobilized to the dextran matrix of a CMS sensor chip (BIAcore) at a flow rate of 5 μL/min. Immobilization levels ranging from 400 to 3000 Response Units (RU) for RANKL or 5000 RU for RANK were obtained. Binding assays were performed at 25° C. in 10 mM Hepes buffer, pH 7.4. The association phase was 180 seconds followed by a dissociation phase in the same buffer. Polypeptides binding studies to RANK or RANKL were determined using single cycle kinetics, starting with 100 μM of the polypeptide of interest followed by 2-fold serial dilutions (ranging from 100 to 0.78 μM). The sensorgrams were fitted to calculate the equilibrium-dissociation constants using the Langmuir 1:1 model with BiaEval 4.1 software (BIAcore). RANK-Fc CF, RANKL and OPG carrier-free were obtained from R&D Systems (Minneapolis, Minn., USA).
Binding of the polypeptides to RANK was studied using surface plasmon resonance (FIG. 1C). Several polypeptides bound to immobilized RANK in a dose-dependent manner, presented here is Pep1 (SEQ ID NO: 33).

IC50 of RANKL-induced osteoclast formation (TRAP-positive multinucleated cells), human CD14+ cells [1] [µM] | IC50 of RANKL-induced osteoclast formation (TRAP-positive multinucleated cells), murine CD11b+ cells [2] [µM] | Kd [3] [µM] | koff [3] [s⁻¹] | kon [3] [M⁻¹ s⁻¹] | Binder
40 | 30 | 10.5 | 0.0052 | 495 | B1
– | – | 20.6 | 0.000278 | – | B2
